Results reported in the Human Domainome abundance scans (Beltran et al. 2025).
± gives the uncertainty stated by the source.

Assay: abundance fitness (aPCA) (normalised: wild type 0, dead -1); higher = more abundant; growth selection in yeast, the domain comes from the species named
Settings: Homo sapiens

| Substance | abundance fitness |
| --- | --- |
| Lipoamide acyltransferase component of branched-chain alpha-keto acid dehydrogenase complex, mitochondrial V177D, P11182 | -0.417 ± 0.073 |
| Lipoamide acyltransferase component of branched-chain alpha-keto acid dehydrogenase complex, mitochondrial E190T, P11182 | -0.119 ± 0.047 |
| Lipoamide acyltransferase component of branched-chain alpha-keto acid dehydrogenase complex, mitochondrial T174V, P11182 | -0.773 ± 0.052 |
| Lipoamide acyltransferase component of branched-chain alpha-keto acid dehydrogenase complex, mitochondrial E190C, P11182 | -0.315 ± 0.12 |
| Lipoamide acyltransferase component of branched-chain alpha-keto acid dehydrogenase complex, mitochondrial L209F, P11182 | -0.211 ± 0.098 |
| Lipoamide acyltransferase component of branched-chain alpha-keto acid dehydrogenase complex, mitochondrial A176L, P11182 | -0.21 ± 0.046 |
| Lipoamide acyltransferase component of branched-chain alpha-keto acid dehydrogenase complex, mitochondrial E203Q, P11182 | -0.104 ± 0.058 |
| Lipoamide acyltransferase component of branched-chain alpha-keto acid dehydrogenase complex, mitochondrial K187N, P11182 | -0.026 ± 0.072 |
| Lipoamide acyltransferase component of branched-chain alpha-keto acid dehydrogenase complex, mitochondrial A176N, P11182 | -0.113 ± 0.097 |
| Lipoamide acyltransferase component of branched-chain alpha-keto acid dehydrogenase complex, mitochondrial G198C, P11182 | -0.666 ± 0.14 |
| Lipoamide acyltransferase component of branched-chain alpha-keto acid dehydrogenase complex, mitochondrial V177S, P11182 | -0.255 ± 0.045 |
| Lipoamide acyltransferase component of branched-chain alpha-keto acid dehydrogenase complex, mitochondrial S194R, P11182 | -0.314 ± 0.037 |
| Lipoamide acyltransferase component of branched-chain alpha-keto acid dehydrogenase complex, mitochondrial E190Y, P11182 | -0.349 ± 0.05 |
| Lipoamide acyltransferase component of branched-chain alpha-keto acid dehydrogenase complex, mitochondrial D197A, P11182 | -0.235 ± 0.036 |
| Lipoamide acyltransferase component of branched-chain alpha-keto acid dehydrogenase complex, mitochondrial A173F, P11182 | -0.439 ± 0.096 |
| Lipoamide acyltransferase component of branched-chain alpha-keto acid dehydrogenase complex, mitochondrial N185W, P11182 | -0.688 ± 0.16 |
| Lipoamide acyltransferase component of branched-chain alpha-keto acid dehydrogenase complex, mitochondrial L172K, P11182 | -0.004 ± 0.048 |
| Lipoamide acyltransferase component of branched-chain alpha-keto acid dehydrogenase complex, mitochondrial K196N, P11182 | -0.053 ± 0.076 |
| Lipoamide acyltransferase component of branched-chain alpha-keto acid dehydrogenase complex, mitochondrial R178D, P11182 | -0.626 ± 0.076 |
| Lipoamide acyltransferase component of branched-chain alpha-keto acid dehydrogenase complex, mitochondrial T213S, P11182 | -0.008 ± 0.046 |
| Lipoamide acyltransferase component of branched-chain alpha-keto acid dehydrogenase complex, mitochondrial G214P, P11182 | -0.474 ± 0.2 |
| Lipoamide acyltransferase component of branched-chain alpha-keto acid dehydrogenase complex, mitochondrial T171C, P11182 | -0.282 ± 0.063 |
| Lipoamide acyltransferase component of branched-chain alpha-keto acid dehydrogenase complex, mitochondrial G195D, P11182 | -0.516 ± 0.12 |
| Lipoamide acyltransferase component of branched-chain alpha-keto acid dehydrogenase complex, mitochondrial K211T, P11182 | -0.041 ± 0.056 |
| Lipoamide acyltransferase component of branched-chain alpha-keto acid dehydrogenase complex, mitochondrial R178K, P11182 | 0.051 ± 0.058 |

| Substance | abundance fitness |
| --- | --- |
| Lipoamide acyltransferase component of branched-chain alpha-keto acid dehydrogenase complex, mitochondrial R178T, P11182 | -0.114 ± 0.067 |
| Nanos homolog 2 Q80C, P60321 | 0.191 ± 0.11 |
| Lipoamide acyltransferase component of branched-chain alpha-keto acid dehydrogenase complex, mitochondrial L172M, P11182 | -0.063 ± 0.048 |
| Lipoamide acyltransferase component of branched-chain alpha-keto acid dehydrogenase complex, mitochondrial K211W, P11182 | -0.206 ± 0.047 |
| Lipoamide acyltransferase component of branched-chain alpha-keto acid dehydrogenase complex, mitochondrial S189E, P11182 | -0.001 ± 0.042 |
| Lipoamide acyltransferase component of branched-chain alpha-keto acid dehydrogenase complex, mitochondrial K211E, P11182 | -0.045 ± 0.039 |
| Lipoamide acyltransferase component of branched-chain alpha-keto acid dehydrogenase complex, mitochondrial G193H, P11182 | -0.908 ± 0.2 |
| Lipoamide acyltransferase component of branched-chain alpha-keto acid dehydrogenase complex, mitochondrial L209C, P11182 | -0.052 ± 0.057 |
| Lipoamide acyltransferase component of branched-chain alpha-keto acid dehydrogenase complex, mitochondrial I186K, P11182 | -0.533 ± 0.4 |
| Lipoamide acyltransferase component of branched-chain alpha-keto acid dehydrogenase complex, mitochondrial Y208F, P11182 | -0.061 ± 0.084 |
| Lipoamide acyltransferase component of branched-chain alpha-keto acid dehydrogenase complex, mitochondrial L206V, P11182 | -0.026 ± 0.043 |
| Lipoamide acyltransferase component of branched-chain alpha-keto acid dehydrogenase complex, mitochondrial R199Q, P11182 | 0.045 ± 0.045 |
| Lipoamide acyltransferase component of branched-chain alpha-keto acid dehydrogenase complex, mitochondrial T213Y, P11182 | -0.386 ± 0.15 |
| Lipoamide acyltransferase component of branched-chain alpha-keto acid dehydrogenase complex, mitochondrial N185R, P11182 | -0.165 ± 0.1 |
| Lipoamide acyltransferase component of branched-chain alpha-keto acid dehydrogenase complex, mitochondrial N207W, P11182 | -0.183 ± 0.041 |
| Lipoamide acyltransferase component of branched-chain alpha-keto acid dehydrogenase complex, mitochondrial V191Q, P11182 | -0.632 ± 0.061 |
| Lipoamide acyltransferase component of branched-chain alpha-keto acid dehydrogenase complex, mitochondrial L180Q, P11182 | -0.403 ± 0.12 |
| Lipoamide acyltransferase component of branched-chain alpha-keto acid dehydrogenase complex, mitochondrial S189M, P11182 | -0.264 ± 0.061 |
| Lipoamide acyltransferase component of branched-chain alpha-keto acid dehydrogenase complex, mitochondrial K202D, P11182 | -0.215 ± 0.058 |
| Lipoamide acyltransferase component of branched-chain alpha-keto acid dehydrogenase complex, mitochondrial L172D, P11182 | -0.237 ± 0.076 |
| Lipoamide acyltransferase component of branched-chain alpha-keto acid dehydrogenase complex, mitochondrial A173C, P11182 | -0.163 ± 0.092 |
| Lipoamide acyltransferase component of branched-chain alpha-keto acid dehydrogenase complex, mitochondrial D204N, P11182 | -0.136 ± 0.4 |
| Lipoamide acyltransferase component of branched-chain alpha-keto acid dehydrogenase complex, mitochondrial L172Q, P11182 | -0.428 ± 0.32 |
| Lipoamide acyltransferase component of branched-chain alpha-keto acid dehydrogenase complex, mitochondrial L206A, P11182 | -0.08 ± 0.036 |
